Laboratory results reported in PMC3630103.

B1: CHK-263 (mouse monoclonal antibody) (antibody, V domains shown)
VH: QVQLQQSGAELVKPGASVKISCKASGYAFSSYWMNWVKQRPGKGLEWIGQIYPGDGDTNYNGKFKGKATLTADKSSSTAYMQLSSLTSEDSAVYFCARGGLTIDYWGQGTTLTVSS
VL: DIVLTQSPATLSVTPGDSVSLSCRASQSISDNLHWYQQKSHESPGLLIKYASQSISGIPSRFSGSGSGTDFTLSINSVETEDFGMYFCQQSNSWPYTFGGGTKLEIK
B2: CHK-102 (mouse monoclonal antibody) (antibody, V domains shown)
VH: QVQLQQSGAELVKPGASVKISCKTSGYAFSSFWMHWVKQRPGKGLEWIGQIYPGDGDTNYNGKFKDKATLTADKSSNTAYMQLTSLTSEDSAVYFCARNLLFDYWGQGTTLTVSS
VL: EILMTQSPAILSVSPGERVSFSCRASQSIGSNIHWYQQRTNGSPRLLIKYASESISGIPSRFSGSGSGTDFTLSINSVESEDIADYYCQQNNIWPFTFGSGTKLEIK
B3: CHK-152 (mouse monoclonal antibody) (antibody, V domains shown)
VH: QVQLQQPGAALVKPGASAMMSCKASGYTFTSYWITWVKQRPGQGLEWIGDIYPGTGRTIYKEKFKTKATLTVDTSSSTAFMQLNSLTSEDSAVYYCARGYGSPYYALDYWGQGTSVTVSS
VL: DIVLTQSPASLAVSQGQRATISCKASQSVDYDGDSYVNWYQQKPGQSPKLLIYDASNLESGIPARFSGSGSGTDFTLNIHPVEEEDVATYYCQESNEDPRTFGGGTKLEIK
B4: CHK-166 (mouse monoclonal antibody) (antibody, V domains shown)
VH: EVRLVESGGGLEQPGGSLKLSCAASGFTFSDYFMYWVRQTPEKRLEWVAYISNGGISTFYSDAVKGRFTISRDNARNTLYLQMSRLKSEDTAIYYCVRQVYGQGYFDYWGQGTTLAVSS
VL: QIVLIQSPAIMSASLGERVTMTCTASSSVSSSYLHWYQQKPGSSPKLWIYSSFSLASGVPARFSGSGSGTSYSLTISTMEAEDAATYYCHQYLRSPWTFGGGSKLEIK

biological target: CHIKV-IbH35 virus (West African genotype), envelope glycoproteins E2-E1 (Chikungunya virus (strain IbH35))

Binder	EC50 of neutralisation of CHIKV-IbH35 (FRNT on Vero cells)	EC90 of neutralisation of CHIKV-IbH35 (FRNT on Vero cells)
B1	0.002 µg/mL	0.051 µg/mL
B2	0.006 µg/mL	0.104 µg/mL
B3	0.001 µg/mL	0.006 µg/mL
B4	0.082 µg/mL	2.58 µg/mL

biological target: CHIKV-RSU1 virus (Asian genotype), envelope glycoproteins E2-E1 (Chikungunya virus (strain RSU1))

Binder	EC50 of neutralisation of CHIKV-RSU1 (FRNT on Vero cells)	EC90 of neutralisation of CHIKV-RSU1 (FRNT on Vero cells)
B1	0.004 µg/mL	0.048 µg/mL
B2	0.005 µg/mL	1.32 µg/mL
B3	0.003 µg/mL	0.015 µg/mL
B4	0.04 µg/mL	2.18 µg/mL
